Experimental data reported in patent US20220089698A1 (published 2022).

Key:
HIV gp120 Bal = HIV gp120 Bal (HIV); assay: single-point ELISA; also: test concentration or dose not given here
HIV gp120 CAAN = HIV gp120 CAAN (HIV); assay: single-point ELISA; also: test concentration or dose not given here

Row | Binder | ELISA (A450) (HIV gp120 Bal) | ELISA (A450) (HIV gp120 CAAN)
1 | 1.15.1-1 (antibody, human IgG1, kappa) heavy: QVQLLQSGAAVTKPGASVRVSCEASGYNIRDYFIHWWRQAPGQGLQWVGWINPKWGQPNNPRQFQGRVSLTRHASWDFDTFSFYMDLKALRSDDTAVYFCARQRSDYWDFDVWGSGTQVTVSSASTKGPSVFPLAPSSKSTSGGTAALGCLVKDYFPEPVTVSWNSGALTSGVHTFPAVLQSSGLYSLSSVVTVPSSSLGTQTYICNVNHKPSNTKVDKKVEPKSCDKTHTCPPCPAPELLAGPDVFLFPPKPKDTLMISRTPEVTCVVVDVSHEDPEVKFNWYVDGVEVHNAKTKPREEQYNSTYRVVSVLTVLHQDWLNGKEYKCKVSNKALPLPEEKTISKAKGQPREPQVYTLPPSREEMTKNQVSLTCLVKGFYPSDIAVEWESNGQPENNYKTTPPVLDSDGSFFLYSKLTVDKSRWQQGNVFSCSVLHEALHSHYTQKSLSLSPGK light: DIQMTQSPSSLSASVGDTVTITCQANGYLNWYQQRRGKAPKLLIYDGSKLERGVPSRFSGRRWGQEYNLTINNLQPEDIATYFCQVYEFVVPGTRLDLKRTVAAPSVFIFPPSDEQLKSGTASVVCLLNNFYPREAKVQWKVDNALQSGNSQESVTEQDSKDSTYSLSSTLTLSKADYEKHKVYACEVTHQGLSSPVTKSFNRGEC | 0.87 A450 | 1.38 A450
2 | 1.21.1-1 (antibody, human IgG1, kappa) heavy: QVQLLQSGAAVTKPGASVRVSCEASGYNIRDYFIHWWRQAPGQGLQWVGWINPKTGQPNNPRQFQGRVSLTRDASWDFDTFSFYMDLKALRSDDTAVYFCARQRSDYWDFDVWGSGTQVTVSSASTKGPSVFPLAPSSKSTSGGTAALGCLVKDYFPEPVTVSWNSGALTSGVHTFPAVLQSSGLYSLSSVVTVPSSSLGTQTYICNVNHKPSNTKVDKKVEPKSCDKTHTCPPCPAPELLAGPDVFLFPPKPKDTLMISRTPEVTCVVVDVSHEDPEVKFNWYVDGVEVHNAKTKPREEQYNSTYRVVSVLTVLHQDWLNGKEYKCKVSNKALPLPEEKTISKAKGQPREPQVYTLPPSREEMTKNQVSLTCLVKGFYPSDIAVEWESNGQPENNYKTTPPVLDSDGSFFLYSKLTVDKSRWQQGNVFSCSVLHEALHSHYTQKSLSLSPGK light: DIQMTQSPSSLSASVGDTVTITCQANGYLNWYQQRRGKAPKLLIYDGSKLERGVPSRFSGRRWGQEYNLTINNLQPEDIATYFCQVYEFVVPGTRLDLKRTVAAPSVFIFPPSDEQLKSGTASVVCLLNNFYPREAKVQWKVDNALQSGNSQESVTEQDSKDSTYSLSSTLTLSKADYEKHKVYACEVTHQGLSSPVTKSFNRGEC | 0.87 A450 | 0.77 A450
3 | 1v2-1 (antibody, human IgG1, kappa) heavy: QVQLLQSGAAVTKPGASVRVSCEASGYNIRDYFIHWWRQAPGQGLQWVGWINPKTGQPNNPRQFQGRVSLTRHASWDFDTYSFYMDLKALRSDDTAVYFCARQRSDYWDFDVWGSGTQVTVSSASTKGPSVFPLAPSSKSTSGGTAALGCLVKDYFPEPVTVSWNSGALTSGVHTFPAVLQSSGLYSLSSVVTVPSSSLGTQTYICNVNHKPSNTKVDKKVEPKSCDKTHTCPPCPAPELLAGPDVFLFPPKPKDTLMISRTPEVTCVVVDVSHEDPEVKFNWYVDGVEVHNAKTKPREEQYNSTYRVVSVLTVLHQDWLNGKEYKCKVSNKALPLPEEKTISKAKGQPREPQVYTLPPSREEMTKNQVSLTCLVKGFYPSDIAVEWESNGQPENNYKTTPPVLDSDGSFFLYSKLTVDKSRWQQGNVFSCSVLHEALHSHYTQKSLSLSPGK light: DIQMTQSPSSLSASVGDTVTITCQANGYLNWYQQRRGKAPKLLIYDGSKLERGVPSRFSGRRWGQEYNLTINNLQPEDIATYFCQVYEFVVPGTRLDLKRTVAAPSVFIFPPSDEQLKSGTASVVCLLNNFYPREAKVQWKVDNALQSGNSQESVTEQDSKDSTYSLSSTLTLSKADYEKHKVYACEVTHQGLSSPVTKSFNRGEC | 1.03 A450 | 1 A450
4 | 1.19.1-1 (antibody, human IgG1, kappa) heavy: QVQLLQSGAAVTKPGASVRVSCEASGYNIRDYFIHWWRQAPGQGLQWVGWINPKTGQPNNPRQFQGRVTLTRHASWDFDTFSFYMDLKALRSDDTAVYFCARQRSDYWDFDVWGSGTQVTVSSASTKGPSVFPLAPSSKSTSGGTAALGCLVKDYFPEPVTVSWNSGALTSGVHTFPAVLQSSGLYSLSSVVTVPSSSLGTQTYICNVNHKPSNTKVDKKVEPKSCDKTHTCPPCPAPELLAGPDVFLFPPKPKDTLMISRTPEVTCVVVDVSHEDPEVKFNWYVDGVEVHNAKTKPREEQYNSTYRVVSVLTVLHQDWLNGKEYKCKVSNKALPLPEEKTISKAKGQPREPQVYTLPPSREEMTKNQVSLTCLVKGFYPSDIAVEWESNGQPENNYKTTPPVLDSDGSFFLYSKLTVDKSRWQQGNVFSCSVLHEALHSHYTQKSLSLSPGK light: DIQMTQSPSSLSASVGDTVTITCQANGYLNWYQQRRGKAPKLLIYDGSKLERGVPSRFSGRRWGQEYNLTINNLQPEDIATYFCQVYEFVVPGTRLDLKRTVAAPSVFIFPPSDEQLKSGTASVVCLLNNFYPREAKVQWKVDNALQSGNSQESVTEQDSKDSTYSLSSTLTLSKADYEKHKVYACEVTHQGLSSPVTKSFNRGEC | 0.85 A450 | 0.93 A450
5 | 1.20.1-1 (antibody, human IgG1, kappa) heavy: QVQLLQSGAAVTKPGASVRVSCEASGYNIRDYFIHWWRQAPGQGLQWVGWINPKTGQPNNPRQFQGRVTMTRHASWDFDTFSFYMDLKALRSDDTAVYFCARQRSDYWDFDVWGSGTQVTVSSASTKGPSVFPLAPSSKSTSGGTAALGCLVKDYFPEPVTVSWNSGALTSGVHTFPAVLQSSGLYSLSSVVTVPSSSLGTQTYICNVNHKPSNTKVDKKVEPKSCDKTHTCPPCPAPELLAGPDVFLFPPKPKDTLMISRTPEVTCVVVDVSHEDPEVKFNWYVDGVEVHNAKTKPREEQYNSTYRVVSVLTVLHQDWLNGKEYKCKVSNKALPLPEEKTISKAKGQPREPQVYTLPPSREEMTKNQVSLTCLVKGFYPSDIAVEWESNGQPENNYKTTPPVLDSDGSFFLYSKLTVDKSRWQQGNVFSCSVLHEALHSHYTQKSLSLSPGK light: DIQMTQSPSSLSASVGDTVTITCQANGYLNWYQQRRGKAPKLLIYDGSKLERGVPSRFSGRRWGQEYNLTINNLQPEDIATYFCQVYEFVVPGTRLDLKRTVAAPSVFIFPPSDEQLKSGTASVVCLLNNFYPREAKVQWKVDNALQSGNSQESVTEQDSKDSTYSLSSTLTLSKADYEKHKVYACEVTHQGLSSPVTKSFNRGEC | 0.89 A450 | 0.8 A450
6 | 1.18.1-1 (antibody, human IgG1, kappa) heavy: QVQLLQSGAAVTKPGASVRVSCEASGYNIRDYFIHWWRQAPGQGLQWVGWINPKHGQPNNPRQFQGRVSLTRHASWDFDTFSFYMDLKALRSDDTAVYFCARQRSDYWDFDVWGSGTQVTVSSASTKGPSVFPLAPSSKSTSGGTAALGCLVKDYFPEPVTVSWNSGALTSGVHTFPAVLQSSGLYSLSSVVTVPSSSLGTQTYICNVNHKPSNTKVDKKVEPKSCDKTHTCPPCPAPELLAGPDVFLFPPKPKDTLMISRTPEVTCVVVDVSHEDPEVKFNWYVDGVEVHNAKTKPREEQYNSTYRVVSVLTVLHQDWLNGKEYKCKVSNKALPLPEEKTISKAKGQPREPQVYTLPPSREEMTKNQVSLTCLVKGFYPSDIAVEWESNGQPENNYKTTPPVLDSDGSFFLYSKLTVDKSRWQQGNVFSCSVLHEALHSHYTQKSLSLSPGK light: DIQMTQSPSSLSASVGDTVTITCQANGYLNWYQQRRGKAPKLLIYDGSKLERGVPSRFSGRRWGQEYNLTINNLQPEDIATYFCQVYEFVVPGTRLDLKRTVAAPSVFIFPPSDEQLKSGTASVVCLLNNFYPREAKVQWKVDNALQSGNSQESVTEQDSKDSTYSLSSTLTLSKADYEKHKVYACEVTHQGLSSPVTKSFNRGEC | 0.97 A450 | 1.18 A450
7 | 1.22.1-1 (antibody, human IgG1, kappa) heavy: QVQLLQSGAAVTKPGASVRVSCEASGYNIRDYFIHWWRQAPGQGLQWVGWINPKTGQPNNPRQFQGRVSLTRHASTFSFYMDLKALRSDDTAVYFCARQRSDYWDFDVWGSGTQVTVSSASTKGPSVFPLAPSSKSTSGGTAALGCLVKDYFPEPVTVSWNSGALTSGVHTFPAVLQSSGLYSLSSVVTVPSSSLGTQTYICNVNHKPSNTKVDKKVEPKSCDKTHTCPPCPAPELLAGPDVFLFPPKPKDTLMISRTPEVTCVVVDVSHEDPEVKFNWYVDGVEVHNAKTKPREEQYNSTYRVVSVLTVLHQDWLNGKEYKCKVSNKALPLPEEKTISKAKGQPREPQVYTLPPSREEMTKNQVSLTCLVKGFYPSDIAVEWESNGQPENNYKTTPPVLDSDGSFFLYSKLTVDKSRWQQGNVFSCSVLHEALHSHYTQKSLSLSPGK light: DIQMTQSPSSLSASVGDTVTITCQANGYLNWYQQRRGKAPKLLIYDGSKLERGVPSRFSGRRWGQEYNLTINNLQPEDIATYFCQVYEFVVPGTRLDLKRTVAAPSVFIFPPSDEQLKSGTASVVCLLNNFYPREAKVQWKVDNALQSGNSQESVTEQDSKDSTYSLSSTLTLSKADYEKHKVYACEVTHQGLSSPVTKSFNRGEC | 1.03 A450 | 0.87 A450
8 | 1.16.1-1 (antibody, human IgG1, kappa) heavy: QVQLLQSGAAVTKPGASVRVSCEASGYNIRDYFIHWWRQAPGQGLQWVGWINPKGGQPNNPRQFQGRVSLTRHASWDFDTFSFYMDLKALRSDDTAVYFCARQRSDYWDFDVWGSGTQVTVSSASTKGPSVFPLAPSSKSTSGGTAALGCLVKDYFPEPVTVSWNSGALTSGVHTFPAVLQSSGLYSLSSVVTVPSSSLGTQTYICNVNHKPSNTKVDKKVEPKSCDKTHTCPPCPAPELLAGPDVFLFPPKPKDTLMISRTPEVTCVVVDVSHEDPEVKFNWYVDGVEVHNAKTKPREEQYNSTYRVVSVLTVLHQDWLNGKEYKCKVSNKALPLPEEKTISKAKGQPREPQVYTLPPSREEMTKNQVSLTCLVKGFYPSDIAVEWESNGQPENNYKTTPPVLDSDGSFFLYSKLTVDKSRWQQGNVFSCSVLHEALHSHYTQKSLSLSPGK light: DIQMTQSPSSLSASVGDTVTITCQANGYLNWYQQRRGKAPKLLIYDGSKLERGVPSRFSGRRWGQEYNLTINNLQPEDIATYFCQVYEFVVPGTRLDLKRTVAAPSVFIFPPSDEQLKSGTASVVCLLNNFYPREAKVQWKVDNALQSGNSQESVTEQDSKDSTYSLSSTLTLSKADYEKHKVYACEVTHQGLSSPVTKSFNRGEC | 0.92 A450 | 0.87 A450
9 | 1.17.1-1 (antibody, human IgG1, kappa) heavy: QVQLLQSGAAVTKPGASVRVSCEASGYNIRDYFIHWWRQAPGQGLQWVGWINPKAGQPNNPRQFQGRVSLTRHASWDFDTFSFYMDLKALRSDDTAVYFCARQRSDYWDFDVWGSGTQVTVSSASTKGPSVFPLAPSSKSTSGGTAALGCLVKDYFPEPVTVSWNSGALTSGVHTFPAVLQSSGLYSLSSVVTVPSSSLGTQTYICNVNHKPSNTKVDKKVEPKSCDKTHTCPPCPAPELLAGPDVFLFPPKPKDTLMISRTPEVTCVVVDVSHEDPEVKFNWYVDGVEVHNAKTKPREEQYNSTYRVVSVLTVLHQDWLNGKEYKCKVSNKALPLPEEKTISKAKGQPREPQVYTLPPSREEMTKNQVSLTCLVKGFYPSDIAVEWESNGQPENNYKTTPPVLDSDGSFFLYSKLTVDKSRWQQGNVFSCSVLHEALHSHYTQKSLSLSPGK light: DIQMTQSPSSLSASVGDTVTITCQANGYLNWYQQRRGKAPKLLIYDGSKLERGVPSRFSGRRWGQEYNLTINNLQPEDIATYFCQVYEFVVPGTRLDLKRTVAAPSVFIFPPSDEQLKSGTASVVCLLNNFYPREAKVQWKVDNALQSGNSQESVTEQDSKDSTYSLSSTLTLSKADYEKHKVYACEVTHQGLSSPVTKSFNRGEC | 0.84 A450 | 0.7 A450
